Experimental data published in the supplement of paper PMC10724198.
± gives the standard deviation of the averaged measurements.

Each sequence was assayed on Saccharomyces cerevisiae (assay: protein stability index of tFT-peptide fusion (C-terminal peptide) (PSI (0-1 scale)); higher = more stable (slower turnover)). Settings: genetic background: das1 deletion; temperature: 30 C.
Experimental: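 MPS profiling in S. cerevisiae of the yeast C-terminome library: the last 12 aa of each annotated ORF are fused to the C-terminus of a sfGFP-mCherry timer, after a GGGS linker. Cells are FACS-sorted into 8 mCherry/sfGFP bins and deep-sequenced. PSI runs from 0 (unstable) to 1 (stable); wild type and das1Δ backgrounds, two technical replicates each.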

Going from KLGLFRHIFSRK [LRE1 C-terminal 12 aa] to KLLIRFILLVNS [YPR130C C-terminal 12 aa], the protein stability index falls from 0.691 ± 0.012 to 0.172 ± 0.016.

First: KLLLNELRSFCV [PCL10 C-terminal 12 aa]
Second: KLLQIHKSKQQD [TAH11 C-terminal 12 aa]
The protein stability index of the first is higher: 0.72 ± 0.009 for the first, 0.69 ± 0.013 for the second.

First: KLRITSQENKTE [BCK1 C-terminal 12 aa]
Second: KLRREDEIIVYA [REC8 C-terminal 12 aa]
The protein stability index of the first is higher: 0.68 ± 0.022 for the first, 0.6145 ± 0.0033 for the second.

“KLVWTLQSLCMR [YEL032C-A C-terminal 12 aa]” and KMIESLKSKLKE [CIN5 C-terminal 12 aa] are within error of each other in protein stability index: 0.688 ± 0.0084 for the first, 0.693 ± 0.02 for the second.

KMKQRKLTPGDS [CMC4 C-terminal 12 aa] and KNEEDSTYFSNV [PMR1 C-terminal 12 aa] are within error of each other in protein stability index: 0.691 ± 0.018 for the first, 0.6935 ± 0.0013 for the second.

KNKTKQNQAQSW [LTO1 C-terminal 12 aa] and KNLWMRENEITI [HES1 C-terminal 12 aa] are within error of each other in protein stability index: 0.704 ± 0.012 for the first, 0.711 ± 0.059 for the second.

KNSDSTEKNATI [DAT1 C-terminal 12 aa] and KPGTIIHFSTNR [ASK1 C-terminal 12 aa] are within error of each other in protein stability index: 0.702 ± 0.026 for the first, 0.71325 ± 0.00059 for the second.

Compared with KQEQESLGSNSK [DAD3 C-terminal 12 aa], KQLDLKHMLEMH [MRPL44 C-terminal 12 aa] is higher in protein stability index: 0.666 ± 0.012 for the first, 0.7 ± 0.0085 for the second.

KQPDLQERVTQE [MHF1 C-terminal 12 aa] and KRAELASKYIYS [COG8 C-terminal 12 aa] are within error of each other in protein stability index: 0.666 ± 0.045 for the first, 0.713 ± 0.022 for the second.

KRGEIYETGKFF [OLE1 C-terminal 12 aa] and KTSNTKVSSRKA [ELO3 C-terminal 12 aa] are within error of each other in protein stability index: 0.707 ± 0.011 for the first, 0.6964 ± 0.0051 for the second.

First: KTSPTCHNMFDV [SDD4 C-terminal 12 aa]
Second: KVGNDHMELKKE [TFG1 C-terminal 12 aa]
The protein stability index of the first is higher: 0.7283 ± 0.0018 for the first, 0.699 ± 0.013 for the second.

First: KVHEHDAKNDSK [CMP2 C-terminal 12 aa]
Second: KVTFINIEINYR [YGR064W C-terminal 12 aa]
The protein stability index of the first is higher: 0.702 ± 0.032 for the first, 0.57 ± 0.02 for the second.

Compared with KWFRENDGKKAN [TSC10 C-terminal 12 aa], KWIEYVEEFQNW [FRE5 C-terminal 12 aa] is higher in protein stability index: 0.7006 ± 0.0047 for the first, 0.7168 ± 0.00097 for the second.

Compared with LAKGGADVKPKK [RDL2 C-terminal 12 aa], LASALKELQDAA [YHR112C C-terminal 12 aa] is lower in protein stability index: 0.7071 ± 0.0016 for the first, 0.691 ± 0.0097 for the second.

“LASVRLSWYSII [YGR204C-A C-terminal 12 aa]” and LDLVARTATLSN [NUP84 C-terminal 12 aa] are within error of each other in protein stability index: 0.71 ± 0.021 for the first, 0.695 ± 0.014 for the second.

Going from LDNILADLELDV [YIL001W C-terminal 12 aa] to LDYLSSYINRRI [FLP1 C-terminal 12 aa], the protein stability index falls from 0.72202 ± 0.00032 to 0.7058 ± 0.00092.

LEDEDVVTILKK [RBG1 C-terminal 12 aa] and LEKQEDYIDNLV [RPC37 C-terminal 12 aa] are within error of each other in protein stability index: 0.705 ± 0.021 for the first, 0.697 ± 0.02 for the second.

Going from LFCNYITETVEN [ASH1 C-terminal 12 aa] to “LFSNVLSLSSNI [YGL007C-A C-terminal 12 aa]”, the protein stability index rises from 0.694 ± 0.0018 to 0.7296 ± 0.0024.

Compared with LIGGVGLSIWKK [RTT10 C-terminal 12 aa], LIHASSVEQATA [MRPL4 C-terminal 12 aa] is lower in protein stability index: 0.7069 ± 0.0038 for the first, 0.68 ± 0.016 for the second.

Going from LILQRLKTSLKI [GFD1 C-terminal 12 aa] to LIWLTIIYQALT [IRC18 C-terminal 12 aa], the protein stability index falls from 0.617 ± 0.024 to 0.249 ± 0.015.

LKEFTQFCKDNS [MIX23 C-terminal 12 aa] and LKFEPTQEIVES [ITR2 C-terminal 12 aa] are within error of each other in protein stability index: 0.724 ± 0.023 for the first, 0.7054 ± 0.002 for the second.

Going from LKFLEEKFPHDK [AIM17 C-terminal 12 aa] to “LKIKVHIYRMKR [YHL015W-A C-terminal 12 aa]”, the protein stability index falls from 0.708 ± 0.02 to 0.597 ± 0.021.

Going from LKKEKLQALPTP [PDP3 C-terminal 12 aa] to LKLEQKIGELSK [CRN1 C-terminal 12 aa], the protein stability index falls from 0.691 ± 0.00082 to 0.679 ± 0.0071.

Going from LKNGDKPHMLKF [RPL6A C-terminal 12 aa] to LKQIEMISGFSL [ADF1 C-terminal 12 aa], the protein stability index rises from 0.6789 ± 0.0021 to 0.707 ± 0.012.

“LKTTPCLTHWYN [YIR030W-A C-terminal 12 aa]” and LLCRDSSREVGE [YBL113C C-terminal 12 aa] are within error of each other in protein stability index: 0.699 ± 0.022 for the first, 0.702 ± 0.022 for the second.

Compared with LLEGIIIKLFLY [YDL011C C-terminal 12 aa], “LLGVGIAFYQDR [YJR112W-A C-terminal 12 aa]” is higher in protein stability index: 0.423 ± 0.0049 for the first, 0.706 ± 0.033 for the second.

Going from LLLKVEKKGSKK [HTZ1 C-terminal 12 aa] to LLLQKSGTYLLL [ARV1 C-terminal 12 aa], the protein stability index falls from 0.706 ± 0.034 to 0.639 ± 0.032.

Going from LLLSIFSILIVL [YPS7 C-terminal 12 aa] to LLMVSVVNFVPL [YPL182C C-terminal 12 aa], the protein stability index rises from 0.321 ± 0.0053 to 0.474 ± 0.034.

Compared with LLNDIKRRNMGR [MET28 C-terminal 12 aa], LLRNGDIDTITK [COG3 C-terminal 12 aa] is higher in protein stability index: 0.6834 ± 0.0045 for the first, 0.7045 ± 0.0048 for the second.

LLYLYDNDHTST [GPI19 C-terminal 12 aa] and LMAKRFQTGSLK [RTS3 C-terminal 12 aa] are within error of each other in protein stability index: 0.72 ± 0.058 for the first, 0.7028 ± 0.00076 for the second.

Going from LMFSKLGRYLFN [NSG1 C-terminal 12 aa] to LMLGVAYYLLNE [CYB5 C-terminal 12 aa], the protein stability index falls from 0.6857 ± 0.0016 to 0.624 ± 0.044.

First: LMVENFRKEYII [PTI1 C-terminal 12 aa]
Second: LMYIYQAFTTQD [GDT1 C-terminal 12 aa]
The protein stability index of the first is higher: 0.7001 ± 0.002 for the first, 0.684 ± 0.011 for the second.

Going from LNAFQHPIVEFQ [YEL028W C-terminal 12 aa] to LNDIGDPTKTVQ [YPL025C C-terminal 12 aa], the protein stability index falls from 0.755 ± 0.013 to 0.689 ± 0.0087.

LNEYSKDPPGNN [RAD18 C-terminal 12 aa] and LNNFKFKTNSKQ [XBP1 C-terminal 12 aa] are within error of each other in protein stability index: 0.704 ± 0.018 for the first, 0.713 ± 0.027 for the second.

LNNTAASTGPGR [YKE2 C-terminal 12 aa] and LNRKEESDSFVA [CHS3 C-terminal 12 aa] are within error of each other in protein stability index: 0.684 ± 0.011 for the first, 0.6769 ± 0.0027 for the second.

Going from LNTSNECCTSDD [BIL2 C-terminal 12 aa] to “LNTYVILFYTVY [YOL166W-A C-terminal 12 aa]”, the protein stability index falls from 0.692 ± 0.023 to 0.273 ± 0.046.

First: LPHFSHLHVHHD [YHR056W-A C-terminal 12 aa]
Second: LPPGLNSKKNIK [EAP1 C-terminal 12 aa]
The protein stability index of the first is higher: 0.7294 ± 0.0032 for the first, 0.69532 ± 0.00062 for the second.

LPQRSIPCAIYP [YCR108C C-terminal 12 aa] and LSAGFGIGEFML [YGR079W C-terminal 12 aa] are within error of each other in protein stability index: 0.687 ± 0.012 for the first, 0.72 ± 0.023 for the second.

Compared with LSAIVFLGTSSH [AVT5 C-terminal 12 aa], LSDKNPEFKYMY [TNA1 C-terminal 12 aa] is lower in protein stability index: 0.7155 ± 0.0055 for the first, 0.686 ± 0.0071 for the second.

LSEASKLASKPL [COX15 C-terminal 12 aa] and LSLRSLQIMGRN [DSS4 C-terminal 12 aa] are within error of each other in protein stability index: 0.701 ± 0.0094 for the first, 0.6993 ± 0.00084 for the second.

First: LSSKKQTVMDKE [POL5 C-terminal 12 aa]
Second: LSTKNIDDGMIS [COG7 C-terminal 12 aa]
The protein stability index of the first is lower: 0.6463 ± 0.0045 for the first, 0.706 ± 0.025 for the second.
